Results as given in paper doi:10.1101/2025.02.27.640495.

Target: Cro-6His (Cro-like repressor of phage phi10403S) (Listeria monocytogenes 10403S prophage …, UniProt A0A0H3GJS2 1-67)
Assay: EMSA

B1: Cro operator probe, native (dsDNA)
DNA 1: TTATAGAGAAACAAAACGTTTCTTTTGG
DNA 2: CCAAAAGAAACGTTTTGTTTCTCTATAA
B1 showed a Kd of 321 nM.
